Source: patent publication US20150335768A1 (CURATORS OF THE UNIVERSITY OF MISSOURI, published 2015)
Ends that are not written are not given here.

How the values were obtained:
[1] = target: T1, recombinant extracellular domain of human ErbB-2 tagged with the FLAG epitope (human, UniProt P04626 23-652); assay: four rounds of phage display affinity selection on biotinylated ErbB-2-ECD held on streptavidin plates
T1 construct: extracellular domain; Expressed in HEK-293 cells, purified on anti-FLAG M2; Biotinylated for biopanning; also called ErbB-2-ECD; ErbB2-ECD
Method: Biotinylated antigen was incubated with streptavidin coated plates for 2 hours at 4° C. In first and second round of selection 10 μg of biotinylated antigen per plate was added, in third round amount of antigen was decreased to 1 μg, and for fourth round of selection 0.1 μg of antigen was used. Unoccupied biotin-binding sites were blocked with 0.1 mM biotin. Phage was incubated with antigen for 4 hrs at RT. Plates were washed 10 times with TPBS to remove unbound phage. Bound phage was eluted with elution buffer (0.1 M HCl, pH is adjusted to 2.2 with glycine, 1 mg/ml BSA, 0.1 mg/ml phenol red) at RT during 10 min. […] After each round, except the last, the eluate of the bound phage was propagated and used as input for the next round. Individual clones were characterized by DNA sequencing after the fourth round of selection.
A random 6-amino acid peptide bacteriophage display library was affinity selected against the ErbB-2-ECD to identify novel peptide-ligands.

[2] = target: T1, recombinant extracellular domain of …; assay: quenching of intrinsic tryptophan fluorescence of soluble ErbB-2-ECD titrated with peptide, 1:1 model, global fit of three protein concentrations
Method: The titrations were performed at 25° C. with varying amounts of peptide added to a fixed ErbB-2-ECD concentration (200-600 nM) in 2 ml of phosphate buffered saline (pH=7.4). Each measurement was collected for 5-20 sec after 1-2 min pre-equilibration. The excitation shutter remained closed during pre-equilibration of the sample and was opened only during data acquisition in order to minimize photobleaching of the sample. The fluorescence measurements were corrected for dilutions and photobleaching of ErbB-2-ECD. Values reported are an average of three independent measurements. […] The fitting procedure was performed using Origin (Microcal Software Inc).
Intrinsic tryptophan fluorescence of the protein was monitored as a function of peptide concentration. […] In the analysis, the inventors assumed a model with the stoichiometric ratio of protein to peptide equal to 1:1. The data were collected at 2 μM, 4 μM and 6 μM concentrations of the protein.

[3] = target: T2, bovine serum albumin (bovine, UniProt P02769 25-607); assay: immunoblot (dot blot) on nitrocellulose, streptavidin-alkaline phosphatase
T2 construct: Control protein spotted on nitrocellulose; also called BSA
Method: (§1) After washing three times with PBS, the membrane was incubated with 100 μM biotinylated peptide for 2 hrs at RT.

[4] = target: T3, bovine asialofetuin (bovine, UniProt P12763 19-359, desialylated glycoprotein); assay: as above
T3 construct: Control protein spotted on nitrocellulose; also called ASF; AF
T3 sequence (looked up): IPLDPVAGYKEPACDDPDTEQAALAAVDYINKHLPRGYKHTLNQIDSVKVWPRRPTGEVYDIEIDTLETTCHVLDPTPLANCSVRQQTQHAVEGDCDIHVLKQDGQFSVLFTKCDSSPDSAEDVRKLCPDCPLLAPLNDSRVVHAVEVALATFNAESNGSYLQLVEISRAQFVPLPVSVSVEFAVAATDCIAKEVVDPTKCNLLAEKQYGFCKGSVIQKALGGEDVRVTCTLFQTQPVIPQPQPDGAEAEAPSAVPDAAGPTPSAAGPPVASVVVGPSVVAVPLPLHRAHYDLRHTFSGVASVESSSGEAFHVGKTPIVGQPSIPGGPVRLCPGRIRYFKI
Method: as §1

T2 sequence (P02769 25-607 limits assumed): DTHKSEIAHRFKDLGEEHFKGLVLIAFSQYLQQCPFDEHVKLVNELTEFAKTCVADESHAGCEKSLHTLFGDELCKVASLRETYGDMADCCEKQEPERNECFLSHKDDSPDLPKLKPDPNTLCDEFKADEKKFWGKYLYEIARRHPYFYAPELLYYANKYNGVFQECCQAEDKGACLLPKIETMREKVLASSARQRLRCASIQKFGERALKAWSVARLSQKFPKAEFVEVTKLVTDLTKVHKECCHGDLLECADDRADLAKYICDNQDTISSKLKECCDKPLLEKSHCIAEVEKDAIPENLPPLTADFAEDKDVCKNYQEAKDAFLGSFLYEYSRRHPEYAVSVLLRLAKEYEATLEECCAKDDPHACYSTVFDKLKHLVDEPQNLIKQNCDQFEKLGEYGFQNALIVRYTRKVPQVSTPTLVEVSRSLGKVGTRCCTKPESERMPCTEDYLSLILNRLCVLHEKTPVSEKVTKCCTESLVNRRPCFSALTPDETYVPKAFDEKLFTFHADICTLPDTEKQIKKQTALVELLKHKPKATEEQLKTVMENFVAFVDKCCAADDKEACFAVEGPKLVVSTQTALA

Row | Binder | binding result [1] | further results
1 | WYSWLL (Only seen as phage clone; not synthesized; not shown: minor coat protein pIII of the fUSE5 (M13/fd type) bacteriophage vector; peptide inserted near the N-terminus of mature) [phage-displayed p6.3 peptide WYSWLL] | binds | 
2 | KCCYSL (not fully specified (bridges); also: present as oxidized and reduced monomer, Chemically synthesized, not biotinylated; used in the fluorescence titration) [synthetic p6.1 peptide KCCYSL] |  | Kd [2]: 30.2 µM
3 | KCCYSL (also: C2-C3 disulfide in the oxidized monomer fraction, Insert of the phage clones selected from the 6-mer library F3-6; not shown: minor coat protein pIII of the fUSE5 (M13/fd type) bacteriophage vector; peptide inserted near the N-terminus of mature) [phage-displayed p6.1 peptide KCCYSL] | binds | 
4 | KCCYSL (cysteine pairing not given here; also: biotin label, position not given here, Biotinylated analog of KCCYSL used in immunoblot, ELISA and cell staining; also called biotinylated p6.1) [biotinylated synthetic p6.1 peptide] |  | binding result [3]: no binding; binding result [4]: no binding
5 | WYAWML (Only seen as phage clone; not synthesized; not shown: minor coat protein pIII of the fUSE5 (M13/fd type) bacteriophage vector; peptide inserted near the N-terminus of mature) [phage-displayed p6.2 peptide WYAWML] | binds | 
